Test results: the supplement of paper PMC7877785
± gives the uncertainty stated by the source.

Assay: self-splicing fitness, log relative to wild type (ln ratio); higher = more splicing; Tetrahymena group I intron in knt gene, E. coli kanamycin selection, DiMSum; sequences stand for … in CUCUCU…GGAGGGAAAAGUUAUCAGGCAUGCACCUGGUAGCUAGUCUUUAAACCAAUAGAUUGCAUCGGUUUAAAAGGCAAGACCGUCAAAUUGCGGGAAAGGGGUCAACAGCCGUUCAGUACCAAGUCUCAGGGGAAACUUUGAGAUGGCCUUGCAAAGGGUAUGGUAAUAAGCUGACGGACAUGGUCCUAACCACGCAGCCAAGUCCUAAGUCAACAGAUCUUCUGUUGAUAUGGAUGCAGUUCACAGACUAAAUGUCGGUCGGGGAAGAUGUAUUCUUCUCAUAAGAUAUAGUCGGACCUCUCCUUAAUGGGAGCUAGCGGAUGAAGUGAUGCAACACUGGAGCCGCUGGGAACUAAUUUGUAUGCGAAAGUAUAUUGAUUAGUUUUGGAGUACUCGUGGUCG
How it was run: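 A randomised library covering all eight P1ex-region intron nucleotides was built with the intron in the knt kanamycin-resistance gene on pET-22b(+) and held in E. coli BL21(DE3). Cells were grown overnight at 37°C or 30°C on LB agar, with or without 25 μg/mL kanamycin, plus 100 μg/mL carbenicillin, 50 μM IPTG and 0.2% rhamnose, and pooled colonies were amplicon-sequenced on an Illumina HiSeq 2500. DiMSum fitness is the error-weighted combination of wild-type-normalised replicate fold changes, kanamycin versus none.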

Row | Sequence | self-splicing fitness (ln) (30 °C) | self-splicing fitness (ln) (37 °C)
1 | GGGCAGCAAUAUUACGGAAC | -1.22 ± 0.1 | -1.75 ± 0.15
2 | GGGCAGCAAUAUUACGGCAA | -0.705 ± 0.14 | -0.742 ± 0.17
3 | GGGCAGCAAUAUUACGGCGU | -1.16 ± 0.12 | -0.571 ± 0.12
4 | GGGCAGCAAUAUUACGGGUG | -3.07 ± 0.14 | -1.71 ± 0.19
5 | GGGCAGCAAUAUUACGGUCA | 0.308 ± 0.069 | 0.187 ± 0.083
6 | GGGCAGCAAUAUUACGUAAG | -0.581 ± 0.063 | 0.126 ± 0.096
7 | GGGCAGCAAUAUUACGUGCU | -3.46 ± 0.22 | -2.16 ± 0.25
8 | GGGGAGCAAUAUUACGAAAU | -3.38 ± 0.47 | -2.37 ± 0.39
9 | GGGGAGCAAUAUUACGAAGG | -2.62 ± 0.41 | -1.44 ± 0.39
10 | GGGGAGCAAUAUUACGACAA | -1.55 ± 0.42 | –
11 | GGGGAGCAAUAUUACGACUC | -0.891 ± 0.25 | -0.405 ± 0.5
12 | GGGGAGCAAUAUUACGAUUA | -2.23 ± 0.23 | -1.58 ± 0.22
13 | GGGGAGCAAUAUUACGAUUU | -2.01 ± 0.16 | -0.868 ± 0.16
14 | GGGGAGCAAUAUUACGCCGA | -2.05 ± 0.5 | –
15 | GGGGAGCAAUAUUACGCCGU | -2.64 ± 0.33 | -0.911 ± 0.34
16 | GGGGAGCAAUAUUACGCUUA | -1.04 ± 0.2 | -1.1 ± 0.27
17 | GGGGAGCAAUAUUACGGCAC | -1.39 ± 0.18 | -1.06 ± 0.3
18 | GGGGAGCAAUAUUACGGCGU | -1.31 ± 0.12 | -1.08 ± 0.15
19 | GGGGAGCAAUAUUACGGGAG | – | -1.53 ± 0.39
20 | GGGGAGCAAUAUUACGGGGU | -3.23 ± 0.3 | -2.13 ± 0.43
21 | GGGGAGCAAUAUUACGGUAG | -3.09 ± 0.27 | –

Row | Sequence | self-splicing fitness (ln) (30 °C) | self-splicing fitness (ln) (37 °C)
22 | GGGGAGCAAUAUUACGUAGC | -2.01 ± 0.24 | -1.91 ± 0.36
23 | GGGGAGCAAUAUUACGUAUA | -1.69 ± 0.47 | -2.35 ± 0.39
24 | GGGGAGCAAUAUUACGUCGU | -2.77 ± 0.18 | -1.63 ± 0.21
25 | GGGGAGCAAUAUUACGUCUA | – | -2.6 ± 0.37
26 | GGGGAGCAAUAUUACGUGAG | -1.74 ± 0.26 | -1.36 ± 0.2
27 | GGGGAGCAAUAUUACGUGUG | -3.08 ± 0.27 | -1.7 ± 0.21
28 | GGGGAGCAAUAUUACGUUCA | -1.86 ± 0.25 | -1.35 ± 0.19
29 | GGGGAGCAAUAUUACGUUCC | – | -2 ± 0.3
30 | GGGGAGCAAUAUUACGUUGA | -3.11 ± 0.26 | -2.27 ± 0.24
31 | GGGGAGCAAUAUUACGUUUG | – | -2.43 ± 0.37
32 | GGGUAGCAAUAUUACGAAAU | -1.8 ± 0.11 | -0.914 ± 0.11
33 | GGGUAGCAAUAUUACGAAUA | -0.00785 ± 0.18 | -0.878 ± 0.18
34 | GGGUAGCAAUAUUACGACAC | -0.676 ± 0.33 | -0.155 ± 0.35
35 | GGGUAGCAAUAUUACGAGAU | -2.43 ± 0.19 | -1.59 ± 0.21
36 | GGGUAGCAAUAUUACGAGUA | – | 0.307 ± 0.22
37 | GGGUAGCAAUAUUACGAGUC | -3.63 ± 0.26 | -0.588 ± 0.17
38 | GGGUAGCAAUAUUACGAUGC | -0.816 ± 0.14 | -0.295 ± 0.19
39 | GGGUAGCAAUAUUACGCAGC | -2.55 ± 0.13 | -0.837 ± 0.12
40 | GGGUAGCAAUAUUACGCGCA | -0.0848 ± 0.13 | -0.0359 ± 0.14
41 | GGGUAGCAAUAUUACGCGGA | -2.64 ± 0.27 | -1.06 ± 0.13
42 | GGGUAGCAAUAUUACGCGUA | -0.49 ± 0.1 | -0.35 ± 0.11

Row | Sequence | self-splicing fitness (ln) (30 °C) | self-splicing fitness (ln) (37 °C)
43 | GGGUAGCAAUAUUACGCUAU | -2.86 ± 0.22 | -2.98 ± 0.31
44 | GGGUAGCAAUAUUACGCUUC | -2.91 ± 0.25 | –
45 | GGGUAGCAAUAUUACGGACG | -1.74 ± 0.13 | -2.1 ± 0.2
46 | GGGUAGCAAUAUUACGGAUC | 0.0263 ± 0.12 | 0.637 ± 0.17
47 | GGGUAGCAAUAUUACGGAUG | -1.19 ± 0.17 | -2.61 ± 0.28
48 | GGGUAGCAAUAUUACGGAUU | -0.431 ± 0.19 | -0.333 ± 0.23
49 | GGGUAGCAAUAUUACGGCGC | -0.217 ± 0.12 | -1.14 ± 0.12
50 | GGGUAGCAAUAUUACGGCUG | -0.592 ± 0.11 | -1.05 ± 0.14
51 | GGGUAGCAAUAUUACGGGAA | -3.91 ± 0.42 | -1.86 ± 0.27
52 | GGGUAGCAAUAUUACGGGUA | -1.55 ± 0.28 | -1.1 ± 0.21
53 | GGGUAGCAAUAUUACGGGUU | -2.7 ± 0.15 | -1.27 ± 0.14
54 | GGGUAGCAAUAUUACGGUUA | -1.43 ± 0.14 | -0.344 ± 0.12
55 | GGGUAGCAAUAUUACGGUUG | -2.88 ± 0.14 | -0.949 ± 0.17
56 | GGGUAGCAAUAUUACGUAAG | -1.46 ± 0.14 | -0.429 ± 0.15
57 | GGGUAGCAAUAUUACGUAGC | -0.707 ± 0.15 | -0.648 ± 0.16
58 | GGGUAGCAAUAUUACGUCCA | -0.128 ± 0.093 | 0.376 ± 0.12
59 | GGGUAGCAAUAUUACGUCGU | -0.541 ± 0.086 | 0.73 ± 0.12
60 | GGGUAGCAAUAUUACGUCUG | -1.21 ± 0.12 | -1.15 ± 0.14
61 | GGGUAGCAAUAUUACGUGGU | -2.59 ± 0.13 | -2.04 ± 0.17
62 | GGGUAGCAAUAUUACGUGUU | -1.37 ± 0.097 | -0.992 ± 0.11
63 | GGGUAGCAAUAUUACGUUGG | -3.28 ± 0.28 | -2.14 ± 0.32
